Legend:
[1] = molecular target: interferon-alpha/β receptor (IFNAR) (human) (UniProt P17181)
[2] = molecular target: interferon-alpha/β receptor (IFNAR) (human) (UniProt P17181); remark: listed apart in the source
[3] = molecular target: interferon-alpha/β receptor (IFNAR) (human) (UniProt P17181); remark: listed apart in the source

Chain of interferon-alpha/β receptor (IFNAR) (human) (P17181 28-557 limits assumed): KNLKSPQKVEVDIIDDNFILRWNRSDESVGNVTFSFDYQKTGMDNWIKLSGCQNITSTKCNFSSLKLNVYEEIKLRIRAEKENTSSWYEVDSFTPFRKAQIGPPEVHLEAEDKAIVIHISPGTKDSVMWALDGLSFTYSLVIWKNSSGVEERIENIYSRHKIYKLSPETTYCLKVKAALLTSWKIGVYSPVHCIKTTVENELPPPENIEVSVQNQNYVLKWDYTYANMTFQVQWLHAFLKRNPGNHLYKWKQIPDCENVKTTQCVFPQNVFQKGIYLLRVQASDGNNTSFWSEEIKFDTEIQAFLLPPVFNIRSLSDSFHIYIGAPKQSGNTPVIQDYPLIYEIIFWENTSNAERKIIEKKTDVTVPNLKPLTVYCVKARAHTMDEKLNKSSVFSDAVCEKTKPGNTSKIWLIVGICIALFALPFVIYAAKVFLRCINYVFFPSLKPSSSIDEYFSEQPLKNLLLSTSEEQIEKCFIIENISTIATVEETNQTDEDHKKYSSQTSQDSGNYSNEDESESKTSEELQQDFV

For Intron A (ligand), the EC50; HEK-Blue IFN-alpha/β SEAP reporter (A630) on CD38-negative cells; table column headed 'IFNa2b', curve labelled 'Intron A', the unit comes from the x axis 'IFN pM' [1] was 1.52 pM, the half-maximal concentration headed 'IC50 pM' on the sheet (paragraph 233 calls the values EC50; the curves rise); iLite IFN-response-element luciferase reporter (RLU) [2] was 0.0645 pM and the EC50; HEK-Blue IFN-alpha/β SEAP reporter (A630nm), left panel, the unit comes from the x axis 'Ifnα2b Equivalents in pM' [3] was 1.13 pM. For the same substance, the EC50; HEK-Blue IFN-alpha/β SEAP reporter (A630nm), right panel, the unit comes from the x axis 'IFNα2b equivlaents in pM' [3] was 1.52 pM.
